± gives the standard deviation.
Test: protein stability index of a GFP-peptide fusion (GPS, HEK-293T) (PSI 1-6); higher = more stable
Settings: c terminus: a fixed tail appended
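Note: 24-mer peptide tiles fused after GFP, lentivirally expressed, FACS-sorted into six equal bins by GFP/DsRed ratio, decoded by Illumina sequencing, PSI is the read-weighted mean bin number.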

| Sequence | protein stability index (treatment: DMSO) | protein stability index (treatment: MLN4924 1 uM, 8 h) |
| --- | --- | --- |
| YTSELYPTVIRNVGLGTCSMFSRV [SLC22A15] | 2.13 ± 0.82 | 1.77 ± 0.12 |
| ICPSTFACAQLATGAACRLVEAVL [HDAC6] | 2.17 ± 0.32 | 2.14 ± 0.049 |
| ILSFTVIMVGFILYCSTPTRTAEP [SLC35F2] | 3.27 ± 0.65 | 2.77 ± 0.53 |
| APLVKTLEKEEEKDLVMYSKCQRL [CDC25B] | 4.69 ± 0.42 | 4.59 ± 0.052 |
| GQESEVPYKREEEALEERRLSRGE [PKD2L1] | 5.39 ± 0.14 | 5.53 ± 0.15 |
| KYESVLQLGRALTAHLYSLLQTQH [ARFIP2] | 3.09 ± 0.24 | 2.85 ± 0.092 |
| HYDRNKDGNKDVYLSLLRMYLSPP [VPS39] | 2.29 ± 0.14 | 2.16 ± 0.18 |
| WRWTGFNFGFDLLVTYTNRYIIFK [GMCL1] | 2.63 ± 0.58 | 3.02 ± 0.45 |
| FNPPPSRPLQVNTADHRIYSYVVS [FAF2] | 2.62 ± 0.29 | 2.92 ± 0.38 |
| EEENDYRNLDASPTYKGLLMSLQN [CEP70] | 3.67 ± 0.18 | 3.63 ± 0.34 |
| STWALYGRAVDQDKVLRFAQQIRL [MYORG] | 2.29 ± 0.23 | 2.25 ± 0.33 |
| REERLRRENEELSARYLSQCQEAE [FBF1] | 5.26 ± 0.29 | 4.97 ± 0.54 |
| FPLLPDHATALVEAFRLKQQLHAR [PPEF2] | 2.74 ± 0.11 | 2.79 ± 0.09 |
| ERFLELAPDFVGDILWEHLEQMIK [ETS2] | 2.36 ± 0.58 | 2.89 ± 0.51 |
| DGSYALNGEYTLMPSPTDVVLPGA [ADAMTS4] | 4.4 ± 0.2 | 3.87 ± 0.36 |
| LLIDFAYTSQITVEEGNVQTLLPA [KLHL20] | 2.29 ± 0.5 | 1.94 ± 0.12 |

| Sequence | protein stability index (treatment: DMSO) | protein stability index (treatment: MLN4924 1 uM, 8 h) |
| --- | --- | --- |
| MVKPLLHMLLNTTLNIKETDSKEL [ZBED1] | 2.13 ± 0.58 | 2.24 ± 0.38 |
| LFTDRMATRSTTQSNRTSRLIGKK [WEE1] | 4.25 ± 0.1 | 4.4 ± 0.063 |
| KDESCYDNAEAAFSDDEEDLNSKG [INTS3] | 5.6 ± 0.39 | 5.5 ± 0.18 |
| RDVPESPQHAADTPKSGEPRVPEE [YJU2B] | 5.44 ± 0.19 | 5.53 ± 0.24 |
| WVFHHYVSTFLSGVMLTWPDGLMY [TMEM120A] | 3.14 ± 0.17 | 3.11 ± 0.24 |
| NKYDNTCLMIAAYKGHTDVVRYLL [FEM1B] | 2.44 ± 0.66 | 2.31 ± 0.29 |
| LQGVRLSENVVNRMKEPSSPPPAP [CHCHD6] | 4.62 ± 0.32 | 4.939 ± 0.047 |
| ITRPSPRRSNSPDKFKRPTPPPSP [CCDC6] | 5.18 ± 0.13 | 5.44 ± 0.081 |
| REIKVTLVFEHVDQDLRTYLDKAP [CDK4] | 2.65 ± 0.56 | 2.68 ± 0.72 |
| PAPALCCAPYDSRLLGSARPELGA [IRX6] | 3.08 ± 0.19 | 3.1 ± 0.25 |
| YSNTDANILFYVVGLRNTLTRIRK [GLT8D2] | 2.3 ± 0.61 | 2.45 ± 0.3 |
| DHRGRMVKHQCCPGCGYFCTAGNF [EHMT1] | 2.79 ± 0.14 | 3.14 ± 0.17 |
| AKECMLQEENKSLREENKALREEN [CBY2] | 5.55 ± 0.22 | 5.51 ± 0.2 |
| IPGFKFDNSLINQIENLNIQVEDI [LOXL2] | 3.51 ± 0.18 | 3.37 ± 0.38 |
| LQRHADEFLLDLGHHERSIMTDLY [FUT8] | 2.55 ± 0.21 | 2.69 ± 0.26 |
| DIFALALTVVCAAGAEPLPRNGDQ [WEE1] | 2.77 ± 0.22 | 2.54 ± 0.61 |
